Earlier results as cited in PMC3382066.
Several values for one entry are separate records, joined by “and”; a condition that tells them apart may be missing. Identical values can stand only once. Blank lines part the entries; values can stand above or below the substance they belong to.

Legend:
calmodulin = calmodulin (UniProt P0DP23)
[1] = molecular target: smooth muscle myosin truncated fragment (UniProt P35749)
[2] = molecular target: smooth muscle myosin (unphosphorylated) (Gallus gallus) (UniProt P10587)
Sequence of UniProt P10587 (P10587 2-1979): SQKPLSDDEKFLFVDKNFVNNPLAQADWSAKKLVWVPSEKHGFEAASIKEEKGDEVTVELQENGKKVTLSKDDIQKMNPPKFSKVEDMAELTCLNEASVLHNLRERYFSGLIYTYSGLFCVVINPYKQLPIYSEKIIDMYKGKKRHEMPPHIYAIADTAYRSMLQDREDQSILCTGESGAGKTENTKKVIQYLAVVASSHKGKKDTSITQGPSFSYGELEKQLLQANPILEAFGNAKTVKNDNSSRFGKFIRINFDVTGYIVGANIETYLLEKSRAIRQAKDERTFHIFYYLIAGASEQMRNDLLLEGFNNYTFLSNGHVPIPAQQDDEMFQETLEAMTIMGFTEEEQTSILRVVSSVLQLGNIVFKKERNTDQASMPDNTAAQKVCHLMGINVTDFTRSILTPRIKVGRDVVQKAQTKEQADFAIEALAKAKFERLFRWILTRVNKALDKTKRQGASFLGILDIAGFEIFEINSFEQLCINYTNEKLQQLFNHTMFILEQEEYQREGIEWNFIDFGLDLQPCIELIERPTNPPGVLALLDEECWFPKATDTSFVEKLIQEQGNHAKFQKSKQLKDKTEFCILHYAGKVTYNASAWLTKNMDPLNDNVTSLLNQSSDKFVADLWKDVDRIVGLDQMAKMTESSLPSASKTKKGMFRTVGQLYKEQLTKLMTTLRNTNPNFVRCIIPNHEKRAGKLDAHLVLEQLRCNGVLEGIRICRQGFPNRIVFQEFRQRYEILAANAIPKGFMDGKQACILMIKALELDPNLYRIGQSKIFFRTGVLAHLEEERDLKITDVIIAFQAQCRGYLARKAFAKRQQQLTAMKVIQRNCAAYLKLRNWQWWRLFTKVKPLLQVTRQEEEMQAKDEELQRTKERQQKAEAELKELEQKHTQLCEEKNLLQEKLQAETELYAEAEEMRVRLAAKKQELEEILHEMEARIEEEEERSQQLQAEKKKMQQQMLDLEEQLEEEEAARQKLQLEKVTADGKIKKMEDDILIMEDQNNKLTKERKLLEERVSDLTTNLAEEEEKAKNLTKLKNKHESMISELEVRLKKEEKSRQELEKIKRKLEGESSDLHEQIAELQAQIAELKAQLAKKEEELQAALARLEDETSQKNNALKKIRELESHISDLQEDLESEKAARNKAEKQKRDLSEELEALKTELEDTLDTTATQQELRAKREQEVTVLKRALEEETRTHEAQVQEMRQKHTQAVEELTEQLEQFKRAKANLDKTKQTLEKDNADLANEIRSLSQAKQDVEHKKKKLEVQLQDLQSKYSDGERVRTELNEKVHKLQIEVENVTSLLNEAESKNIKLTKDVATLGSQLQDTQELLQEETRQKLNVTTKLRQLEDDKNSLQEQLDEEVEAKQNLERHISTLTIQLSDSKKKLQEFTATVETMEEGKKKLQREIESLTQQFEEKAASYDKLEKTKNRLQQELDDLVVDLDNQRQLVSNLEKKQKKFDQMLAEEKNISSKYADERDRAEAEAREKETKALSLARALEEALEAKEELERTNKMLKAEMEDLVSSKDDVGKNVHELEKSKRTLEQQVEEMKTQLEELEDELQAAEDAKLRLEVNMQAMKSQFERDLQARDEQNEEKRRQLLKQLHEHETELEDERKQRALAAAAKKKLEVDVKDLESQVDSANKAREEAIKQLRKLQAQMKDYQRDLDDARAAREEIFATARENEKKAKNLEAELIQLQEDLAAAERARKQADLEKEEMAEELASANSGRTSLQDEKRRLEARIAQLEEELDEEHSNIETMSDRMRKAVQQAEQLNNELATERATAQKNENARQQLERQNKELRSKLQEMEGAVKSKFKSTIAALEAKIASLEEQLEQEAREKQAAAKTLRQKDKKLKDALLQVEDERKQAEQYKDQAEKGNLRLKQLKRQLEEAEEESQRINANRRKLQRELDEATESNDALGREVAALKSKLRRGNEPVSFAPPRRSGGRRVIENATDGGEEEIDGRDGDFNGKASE

Sequence of UniProt P35749 (P35749 1-1175): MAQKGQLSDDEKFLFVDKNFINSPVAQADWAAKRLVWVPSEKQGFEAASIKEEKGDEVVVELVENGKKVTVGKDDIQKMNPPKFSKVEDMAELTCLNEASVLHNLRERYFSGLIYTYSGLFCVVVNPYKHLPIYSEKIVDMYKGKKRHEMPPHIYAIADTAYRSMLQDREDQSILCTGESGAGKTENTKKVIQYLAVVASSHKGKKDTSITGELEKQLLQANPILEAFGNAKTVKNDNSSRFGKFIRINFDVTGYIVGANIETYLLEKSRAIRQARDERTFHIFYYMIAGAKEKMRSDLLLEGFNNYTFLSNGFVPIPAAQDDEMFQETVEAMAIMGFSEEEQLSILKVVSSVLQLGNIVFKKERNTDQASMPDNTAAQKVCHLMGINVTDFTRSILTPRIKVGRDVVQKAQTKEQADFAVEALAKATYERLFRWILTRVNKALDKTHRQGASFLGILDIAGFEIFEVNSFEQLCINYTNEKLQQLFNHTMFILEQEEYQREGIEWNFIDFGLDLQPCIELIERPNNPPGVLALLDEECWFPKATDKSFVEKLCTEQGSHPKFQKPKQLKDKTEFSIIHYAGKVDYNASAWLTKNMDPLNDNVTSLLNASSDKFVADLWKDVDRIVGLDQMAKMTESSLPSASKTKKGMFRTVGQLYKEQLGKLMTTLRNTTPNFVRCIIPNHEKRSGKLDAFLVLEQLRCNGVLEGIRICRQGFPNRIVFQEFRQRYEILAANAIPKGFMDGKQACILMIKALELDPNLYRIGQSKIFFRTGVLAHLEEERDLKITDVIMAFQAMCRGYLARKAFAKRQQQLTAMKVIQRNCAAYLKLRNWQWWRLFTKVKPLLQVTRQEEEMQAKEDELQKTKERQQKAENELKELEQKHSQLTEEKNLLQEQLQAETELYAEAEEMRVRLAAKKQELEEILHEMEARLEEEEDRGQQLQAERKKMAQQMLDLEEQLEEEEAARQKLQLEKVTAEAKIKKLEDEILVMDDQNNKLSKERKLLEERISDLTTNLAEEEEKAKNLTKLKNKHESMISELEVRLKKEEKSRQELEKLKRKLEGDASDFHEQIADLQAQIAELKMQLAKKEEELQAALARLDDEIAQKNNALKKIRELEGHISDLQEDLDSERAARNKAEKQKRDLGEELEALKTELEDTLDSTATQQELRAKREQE
Sequence of MLCK (P11799 935-1906): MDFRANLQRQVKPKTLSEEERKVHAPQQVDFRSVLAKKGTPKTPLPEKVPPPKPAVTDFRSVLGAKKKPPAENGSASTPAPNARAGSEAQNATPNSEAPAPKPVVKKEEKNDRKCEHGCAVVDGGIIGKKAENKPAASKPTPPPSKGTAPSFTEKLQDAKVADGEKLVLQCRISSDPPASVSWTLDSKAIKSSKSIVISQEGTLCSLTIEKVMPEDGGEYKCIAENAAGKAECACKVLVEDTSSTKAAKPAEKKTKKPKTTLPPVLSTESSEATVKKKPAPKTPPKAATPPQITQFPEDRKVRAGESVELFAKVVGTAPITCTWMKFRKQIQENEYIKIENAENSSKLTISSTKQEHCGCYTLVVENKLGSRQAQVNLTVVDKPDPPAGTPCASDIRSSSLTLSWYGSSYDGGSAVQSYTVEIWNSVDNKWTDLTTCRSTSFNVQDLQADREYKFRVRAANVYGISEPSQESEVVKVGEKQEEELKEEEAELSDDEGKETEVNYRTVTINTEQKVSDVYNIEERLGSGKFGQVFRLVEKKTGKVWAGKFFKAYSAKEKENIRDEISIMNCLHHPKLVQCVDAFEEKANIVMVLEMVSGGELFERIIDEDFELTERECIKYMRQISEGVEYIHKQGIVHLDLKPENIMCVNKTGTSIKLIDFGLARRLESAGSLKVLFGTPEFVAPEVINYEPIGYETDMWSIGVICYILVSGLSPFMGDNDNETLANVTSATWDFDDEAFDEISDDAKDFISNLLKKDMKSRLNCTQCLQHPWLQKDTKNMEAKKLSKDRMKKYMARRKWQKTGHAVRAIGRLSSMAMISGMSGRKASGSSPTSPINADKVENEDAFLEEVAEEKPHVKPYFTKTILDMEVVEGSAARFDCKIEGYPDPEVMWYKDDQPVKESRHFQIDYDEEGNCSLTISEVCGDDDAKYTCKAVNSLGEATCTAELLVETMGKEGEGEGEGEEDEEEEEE

Kd (calmodulin): 5 µM
Substance: MLCK N-terminal actin-binding region (from UniProt Q15746)

Ki [1]: 40 µM and 20 µM
Substance: telokin telokin (from UniProt Q15746)

Kd [2]: 0.8 µM
Substance: MLCK (from UniProt P11799)
